Results taken from patent US20140242072A1, “ANTI-ICAM-1 ANTIBODIES TO TREAT MULTIPLE-MYELOMA RELATED DISORDERS” (BIOINVENT INTERNATIONAL AB, priority 2011, published 2014).

How the values were obtained:
[1] = target: T1, ICAM-1 (BI-AB epitope) on cells from multiple-myeloma-related disorders (Homo sapiens, UniProt P05362); experiment: BI-AB epitope expression on bone marrow cells of patients with multiple-myeloma-related disorders by flow cytometry; format: binding; conditions: FACS
T1 construct: endogenous in cells; host or cells: primary bone marrow cells (plasma cells) from patients with plasmacytoma, plasma cell leukemia or light chain amyloidosis
T1 sequence (P05362 28-532): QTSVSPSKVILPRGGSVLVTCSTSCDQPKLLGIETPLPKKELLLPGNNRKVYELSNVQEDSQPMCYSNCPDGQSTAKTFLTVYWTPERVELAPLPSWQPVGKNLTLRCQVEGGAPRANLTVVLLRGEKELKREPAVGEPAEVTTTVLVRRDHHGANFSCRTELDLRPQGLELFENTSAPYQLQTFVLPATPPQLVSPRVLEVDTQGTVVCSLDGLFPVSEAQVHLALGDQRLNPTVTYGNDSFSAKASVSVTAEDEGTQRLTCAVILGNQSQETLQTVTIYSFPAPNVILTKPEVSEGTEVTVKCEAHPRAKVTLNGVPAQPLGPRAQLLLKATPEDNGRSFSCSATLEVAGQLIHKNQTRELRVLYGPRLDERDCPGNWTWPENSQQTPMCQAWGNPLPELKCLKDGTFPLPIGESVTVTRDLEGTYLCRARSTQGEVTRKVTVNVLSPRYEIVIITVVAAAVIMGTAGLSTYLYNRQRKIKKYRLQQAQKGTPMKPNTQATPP
Source text: FIG. 1: BI-AB epitope expression in a cohort of patients with plasma cell disorders, consecutively analysed at Lund University Hospital, Sweden. • Pat no (Patient number); M (male); F (female); Ig (immunoglobulin class of M-component); M comp (monoclonal Ig component in serum); Skel. destr (number of skeletal destruction as measured by X-ray); n/a (not available); MM-cells (cells from multiple-myeloma-related disorders counted as % of all nucleated cells in bone marrow smears); ISS (International Staging System of MM); T (number of different MM treatment regimes before BI-AB analysis); Diagnosis; AL (amyloid light chain amyloidosis); PCL (plasma cell leukemia); PC (plasmacytoma); Expression level (BI-AB epitope expression level measured by FACS on cells from multiple-myeloma-related disorders: +++ (very highly positive), ++ (highly positive), + (positive) or − (negative); Positive MM cells (BI-AB epitope positive cells from multiple-myeloma-related disorders as measured by FACS).
We evaluated expression of the BI-AB epitope on bone marrow cells in patients with multiple-myeloma-related disorders (plasmacytoma, plasma cell leukemia, and light chain amyloidosis) by flow cytometry (FIG. 1).
Cells from multiple-myeloma-related disorders were identified using fluorescent antibodies against the following surface antigens CD38, CD138, CD45 and CD56 according to European Myeloma Network guidelines on multiparametric flow cytometry in MM (Rawstron et al., 2008) and confirming monoclonal cells from multiple-myeloma-related disorders with intracellular staining of lambda and kappa light chains.

[2] = target: T2, Intercellular Adhesion Molecule-1 (ICAM-1) (human, UniProt P05362 28-532); experiment: flow cytometry (FACS) on bone marrow plasma cells of patients with PC, PCL or AL
T2 construct: whole, on cells; Endogenous ICAM-1 on primary patient cells; also called CD54
T2 sequence (P05362 28-532): as above

B1: BI-AB antibody (antibody, V domains shown)
VH: EVQLLESGGGLVQPGGSLRLSCAASGFTFSNAWMSWVRQAPGKGLEWVAFIWYDGSNKYYADSVKGRFTISRDNSKNTLYLQMNSLRAEDTAVYYCARYSGWYFDYWGQGTLVTVSS
VL: QSVLTQPPSASGTPGQRVTISCTGSSSNIGAGYDVHWYQQLPGTAPKLLIYDNNNRPSGVPDRFSGSKSGTSASLAISGLRSEDEADYYCQSYDSSLSAWLFGGGTKLTVLG
notes: It says the antibody was described previously in WO 2007/112110; also called exemplary antibody of the invention
[1]; all patients with plasmacytoma, plasma cell leukemia or light chain amyloidosis
  BI-AB epitope positive cells from multiple-myeloma-related disorders: expressed the BI-AB epitope on most cells
[1]; cells from multiple-myeloma-related disorders vs normal B cells
  median BI-AB epitope expression level relative to normal B cells from the same patients: 10 times higher
[1]; patient bone marrow cells
  BI-AB epitope expression level on cells from multiple-myeloma-related disorders: very highly expressed
[2]
  binding result: binds
